Experimental data published in paper doi:10.1101/2021.09.27.461913v1.

Test system: O=c1[nH]c(=O)c2[nH]cnc2[nH]1
Test: cells, lysate or membranes
Conditions: labelled compound

With UapA (Aspergillus nidulans FGSC A4) the Km was 6 ± 2 µM.
